# How the values were obtained:
# c-Src SH2 = test: SH2 binding enrichment of the phosphorylated peptide, bacterial display (enrichment ratio); higher = better substrate or ligand; peptides without Tyr show the background
# Grb2 SH2 = Grb2 SH2 (UniProt P62993); test: as above
# SHP2-C SH2 = test: as above
# EPHB1 = EPHB1 (UniProt P54762); test: phosphorylation enrichment, bacterial display (enrichment ratio); higher = better substrate or ligand; peptides without Tyr show the background
# FGFR1 = FGFR1 (UniProt P11362); test: as above
# Sequence of FGFR1 (P11362 whole entry, looked up): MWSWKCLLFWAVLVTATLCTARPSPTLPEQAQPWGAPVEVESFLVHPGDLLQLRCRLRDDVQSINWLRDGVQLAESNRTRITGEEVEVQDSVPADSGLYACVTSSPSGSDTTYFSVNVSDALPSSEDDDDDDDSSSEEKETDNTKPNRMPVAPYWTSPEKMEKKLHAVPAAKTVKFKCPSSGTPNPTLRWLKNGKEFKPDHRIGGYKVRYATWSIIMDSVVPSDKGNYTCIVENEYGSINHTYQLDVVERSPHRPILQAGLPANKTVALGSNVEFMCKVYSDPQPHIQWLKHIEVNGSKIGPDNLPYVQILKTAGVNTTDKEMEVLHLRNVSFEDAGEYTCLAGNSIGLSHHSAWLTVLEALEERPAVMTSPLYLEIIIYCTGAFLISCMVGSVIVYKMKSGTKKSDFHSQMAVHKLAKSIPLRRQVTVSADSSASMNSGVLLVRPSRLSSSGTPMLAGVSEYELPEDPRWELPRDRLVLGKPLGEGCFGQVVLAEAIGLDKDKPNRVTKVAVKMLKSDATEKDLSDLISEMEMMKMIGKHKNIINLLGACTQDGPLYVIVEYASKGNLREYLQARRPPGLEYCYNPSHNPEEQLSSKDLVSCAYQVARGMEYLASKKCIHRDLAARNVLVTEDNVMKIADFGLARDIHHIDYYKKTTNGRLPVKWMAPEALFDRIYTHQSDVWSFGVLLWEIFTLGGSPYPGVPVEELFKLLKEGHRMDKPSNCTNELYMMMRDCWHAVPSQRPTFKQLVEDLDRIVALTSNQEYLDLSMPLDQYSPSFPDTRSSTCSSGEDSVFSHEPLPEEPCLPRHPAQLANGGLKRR
# Jak2 = Jak2 (UniProt O60674); test: as above
# Fyn = Fyn (UniProt P06241); test: as above
# Sequence of Fyn (P06241 whole entry, looked up): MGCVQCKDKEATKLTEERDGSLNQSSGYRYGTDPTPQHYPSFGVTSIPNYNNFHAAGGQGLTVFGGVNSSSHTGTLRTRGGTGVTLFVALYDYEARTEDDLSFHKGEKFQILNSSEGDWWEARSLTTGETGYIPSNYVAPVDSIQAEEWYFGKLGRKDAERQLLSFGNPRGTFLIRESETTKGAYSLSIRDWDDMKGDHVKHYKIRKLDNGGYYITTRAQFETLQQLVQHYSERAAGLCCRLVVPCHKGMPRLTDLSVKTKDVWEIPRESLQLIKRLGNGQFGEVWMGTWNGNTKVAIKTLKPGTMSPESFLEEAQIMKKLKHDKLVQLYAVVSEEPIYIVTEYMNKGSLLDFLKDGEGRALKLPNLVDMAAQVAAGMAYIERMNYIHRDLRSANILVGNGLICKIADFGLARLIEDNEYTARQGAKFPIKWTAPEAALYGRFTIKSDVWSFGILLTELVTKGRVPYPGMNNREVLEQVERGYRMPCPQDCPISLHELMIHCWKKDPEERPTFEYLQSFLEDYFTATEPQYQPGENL
# Fer (mouse) = test: as above
# EPHB2 = EPHB2 (UniProt P29323); test: as above
# Sequence of EPHB2 (P29323 whole entry, looked up): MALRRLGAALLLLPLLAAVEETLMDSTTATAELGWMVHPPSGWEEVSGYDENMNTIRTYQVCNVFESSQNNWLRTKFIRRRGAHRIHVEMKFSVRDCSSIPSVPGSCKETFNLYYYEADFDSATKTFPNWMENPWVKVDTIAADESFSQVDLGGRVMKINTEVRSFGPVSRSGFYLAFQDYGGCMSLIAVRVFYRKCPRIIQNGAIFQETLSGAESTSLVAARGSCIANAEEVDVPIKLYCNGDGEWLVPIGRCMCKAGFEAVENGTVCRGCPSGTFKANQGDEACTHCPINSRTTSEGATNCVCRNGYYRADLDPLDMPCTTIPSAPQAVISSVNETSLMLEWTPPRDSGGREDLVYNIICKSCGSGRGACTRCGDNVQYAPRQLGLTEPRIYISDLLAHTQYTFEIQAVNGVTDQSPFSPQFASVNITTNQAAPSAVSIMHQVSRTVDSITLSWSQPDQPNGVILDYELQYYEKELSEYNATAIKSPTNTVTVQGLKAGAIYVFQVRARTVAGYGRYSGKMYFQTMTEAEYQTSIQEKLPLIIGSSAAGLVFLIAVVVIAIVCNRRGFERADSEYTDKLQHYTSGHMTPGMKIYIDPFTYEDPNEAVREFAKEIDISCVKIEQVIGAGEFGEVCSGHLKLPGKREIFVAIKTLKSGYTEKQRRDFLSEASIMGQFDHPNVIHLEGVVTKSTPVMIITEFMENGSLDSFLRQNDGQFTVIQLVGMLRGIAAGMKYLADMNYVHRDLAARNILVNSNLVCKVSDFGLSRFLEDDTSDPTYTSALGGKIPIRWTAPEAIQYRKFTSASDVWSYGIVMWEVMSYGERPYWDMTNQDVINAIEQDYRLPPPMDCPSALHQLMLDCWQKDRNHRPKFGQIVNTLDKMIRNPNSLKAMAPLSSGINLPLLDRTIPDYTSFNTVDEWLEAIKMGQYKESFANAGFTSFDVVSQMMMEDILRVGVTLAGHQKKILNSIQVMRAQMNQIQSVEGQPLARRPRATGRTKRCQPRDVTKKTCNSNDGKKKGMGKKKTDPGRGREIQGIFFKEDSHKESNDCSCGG
# c-Src = test: as above
# FGFR3 = FGFR3 (UniProt P22607); test: as above
# Sequence of FGFR3 (P22607 whole entry, looked up): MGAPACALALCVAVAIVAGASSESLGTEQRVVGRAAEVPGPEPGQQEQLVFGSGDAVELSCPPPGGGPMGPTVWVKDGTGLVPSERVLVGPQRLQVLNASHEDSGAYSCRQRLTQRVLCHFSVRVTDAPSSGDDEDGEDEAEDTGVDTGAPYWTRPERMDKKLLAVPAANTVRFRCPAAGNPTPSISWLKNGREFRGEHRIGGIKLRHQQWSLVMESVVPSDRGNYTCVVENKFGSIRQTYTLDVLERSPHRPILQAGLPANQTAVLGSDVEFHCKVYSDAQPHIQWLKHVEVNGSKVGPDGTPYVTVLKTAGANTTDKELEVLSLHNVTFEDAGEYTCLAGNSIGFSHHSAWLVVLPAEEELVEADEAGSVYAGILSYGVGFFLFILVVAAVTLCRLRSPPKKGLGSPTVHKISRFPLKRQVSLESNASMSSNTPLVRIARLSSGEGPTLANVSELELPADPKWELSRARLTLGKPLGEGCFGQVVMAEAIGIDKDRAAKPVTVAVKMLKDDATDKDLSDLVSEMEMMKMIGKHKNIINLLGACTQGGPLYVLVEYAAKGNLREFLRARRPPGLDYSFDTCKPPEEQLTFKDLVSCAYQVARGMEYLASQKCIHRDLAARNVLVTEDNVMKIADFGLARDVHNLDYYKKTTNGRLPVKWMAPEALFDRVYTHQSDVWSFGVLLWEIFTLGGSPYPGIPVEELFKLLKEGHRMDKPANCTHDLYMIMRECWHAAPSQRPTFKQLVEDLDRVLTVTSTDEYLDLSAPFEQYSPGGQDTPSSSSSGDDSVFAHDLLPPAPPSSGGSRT
# AncSZ = test: as above
# Hck = Hck (UniProt P08631); test: as above
# Sequence of Hck (P08631 whole entry, looked up): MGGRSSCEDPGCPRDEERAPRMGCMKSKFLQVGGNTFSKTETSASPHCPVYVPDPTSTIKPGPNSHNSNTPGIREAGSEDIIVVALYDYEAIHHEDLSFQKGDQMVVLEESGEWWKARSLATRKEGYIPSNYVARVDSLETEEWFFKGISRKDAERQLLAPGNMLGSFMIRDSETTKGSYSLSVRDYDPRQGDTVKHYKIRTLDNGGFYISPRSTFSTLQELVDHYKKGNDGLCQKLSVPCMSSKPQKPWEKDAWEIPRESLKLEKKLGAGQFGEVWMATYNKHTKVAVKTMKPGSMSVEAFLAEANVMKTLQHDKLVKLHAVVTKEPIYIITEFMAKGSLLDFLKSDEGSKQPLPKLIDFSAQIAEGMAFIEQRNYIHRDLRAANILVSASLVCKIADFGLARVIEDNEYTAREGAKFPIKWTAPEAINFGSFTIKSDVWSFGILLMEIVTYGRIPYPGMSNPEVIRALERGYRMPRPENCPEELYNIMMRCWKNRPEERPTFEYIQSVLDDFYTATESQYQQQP
# c-Abl (mouse) = test: as above
# Fes = Fes (UniProt P07332); test: as above
# MERTK = MERTK (UniProt Q12866); test: as above
# 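Wherever SH2 binding enrichment of the phosphorylated peptide, bacterial display is given: peptide library displayed on the E. coli surface as eCPX fusions, selected cells deep-sequenced, score is each peptide's frequency after selection divided by its frequency in the input.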
# 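Wherever phosphorylation enrichment, bacterial display is given: 11-residue human phosphosite peptides and single-mutation variants displayed on the E. coli surface, counted by deep sequencing, each peptide's frequency after selection divided by its frequency in the unselected input library; frequency after pTyr selection over input frequency; kinase dosed for 20-30% of maximal phosphorylation in three min.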
# Sequence of EPHB1 (P54762 whole entry, looked up): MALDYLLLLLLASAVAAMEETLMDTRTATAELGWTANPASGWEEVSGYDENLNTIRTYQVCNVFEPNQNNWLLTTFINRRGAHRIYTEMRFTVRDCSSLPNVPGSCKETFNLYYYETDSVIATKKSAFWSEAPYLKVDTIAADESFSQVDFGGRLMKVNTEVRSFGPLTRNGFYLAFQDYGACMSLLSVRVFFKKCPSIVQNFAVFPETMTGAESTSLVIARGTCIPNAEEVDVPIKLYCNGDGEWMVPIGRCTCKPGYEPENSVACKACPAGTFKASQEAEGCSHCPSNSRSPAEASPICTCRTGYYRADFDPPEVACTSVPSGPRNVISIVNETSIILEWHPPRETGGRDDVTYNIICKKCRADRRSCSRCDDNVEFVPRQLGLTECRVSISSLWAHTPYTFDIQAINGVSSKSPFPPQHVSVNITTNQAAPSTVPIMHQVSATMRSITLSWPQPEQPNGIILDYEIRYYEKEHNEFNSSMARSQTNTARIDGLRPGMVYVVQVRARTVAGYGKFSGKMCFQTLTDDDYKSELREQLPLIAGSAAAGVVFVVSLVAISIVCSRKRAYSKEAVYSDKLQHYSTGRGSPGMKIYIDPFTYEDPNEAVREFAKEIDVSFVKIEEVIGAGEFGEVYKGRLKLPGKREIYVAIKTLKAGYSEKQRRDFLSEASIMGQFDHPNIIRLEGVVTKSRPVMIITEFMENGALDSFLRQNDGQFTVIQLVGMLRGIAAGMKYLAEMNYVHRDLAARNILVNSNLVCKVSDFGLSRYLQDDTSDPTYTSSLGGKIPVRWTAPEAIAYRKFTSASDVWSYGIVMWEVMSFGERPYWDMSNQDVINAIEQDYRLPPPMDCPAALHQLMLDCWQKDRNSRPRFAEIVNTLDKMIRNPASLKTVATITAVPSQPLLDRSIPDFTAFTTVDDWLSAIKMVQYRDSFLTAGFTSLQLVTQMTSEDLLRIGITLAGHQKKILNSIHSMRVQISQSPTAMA
SH2 binding enrichment (c-Src SH2),SH2 binding enrichment (Grb2 SH2),SH2 binding enrichment (SHP2-C SH2),Sequence,phosphorylation enrichment (EPHB1),phosphorylation enrichment (FGFR1),phosphorylation enrichment (Jak2),phosphorylation enrichment (Fyn),phosphorylation enrichment (Fer (mouse)),phosphorylation enrichment (EPHB2),phosphorylation enrichment (c-Src),phosphorylation enrichment (FGFR3),phosphorylation enrichment (AncSZ),phosphorylation enrichment (Hck),phosphorylation enrichment (c-Abl (mouse)),phosphorylation enrichment (Fes),phosphorylation enrichment (MERTK)
0.469,0.763,0.561,GDFFRYLAEVA [YWHAG_Y133_YF],0.503,0.683,0.964,0.432,0.486,0.51,0.447,0.664,1.07,0.477,0.78,1.18,0.429
1.33,1.26,1.89,IALSKYGRVKW [FGF6_Y186_R191W],0.316,0.387,0.56,0.306,0.413,0.329,0.437,0.357,0.603,0.438,0.748,0.985,0.365
0.687,1.02,0.939,NTGDYYDLYGG [PTPN11_Y63],13,14.7,4.07,5.18,1.59,14.4,5,13.8,4.64,5.35,1.02,1.13,4.18
0.527,0.852,0.774,RRVPVYGGRGA [QDPR_Y16_L14P],0.573,0.762,1.36,0.626,0.626,0.512,1.15,0.627,0.969,0.702,1.28,0.836,0.779
0.496,0.822,0.784,FADIAYSYRHG [PAH_Y166_N167S],0.423,0.562,0.727,0.512,0.453,0.418,0.714,0.508,0.726,0.568,0.63,0.658,0.46
1.21,1.7,1.47,IFCIQYNICAF [MYH4_Y820_R823C],0.686,0.451,1.56,0.421,0.538,0.9,0.513,0.807,1.28,0.45,1.14,1.53,0.421
0.688,0.876,0.818,WEQELYSQLVF [WAS_Y102_YF],8.61,4.85,1.38,8.54,14.4,11.6,6.47,4.51,2.24,7.88,1.81,2.71,8.62
0.55,0.932,0.711,DCLASYLDKVR [KRT10_Y160_R156C],0.55,0.56,0.842,0.422,0.402,0.659,0.419,0.659,0.886,0.452,0.706,0.953,0.4
0.489,0.912,0.621,KAPVDYIRKLQ [MITF_Y360_S357P],0.416,0.328,0.576,0.338,0.365,0.436,0.406,0.423,0.547,0.346,0.475,0.616,0.399
0.486,0.836,0.895,SSREEYFIGGG [GYPC_Y126_K124E],0.457,0.562,0.894,0.574,0.486,0.44,0.655,1.94,1.05,0.474,0.71,0.909,0.471
1.02,0.507,0.473,LSDGPYSSPFE [EPOR_Y485_N487S_YF],0.631,0.781,0.765,0.786,0.465,0.53,0.698,0.715,1.37,0.684,0.468,0.84,0.527
0.598,1.04,0.838,REDIFYTSKLW [AKR1C2_Y81],0.978,0.592,0.947,0.692,0.543,0.796,0.438,1.01,1.07,0.77,0.607,1.12,0.645
2.09,0.856,1.04,SQKRKYIEIDS [SDAD1_Y580],0.463,0.463,0.701,0.451,0.394,0.414,0.507,0.376,0.818,0.475,0.613,0.614,0.571
1.1,1.37,1.3,SIRFNYLLDVL [FGFR4_Y237_YF],0.539,0.481,1,0.432,0.502,0.518,0.413,0.747,0.94,0.485,0.706,1.14,0.387
0.77,0.751,0.961,FKELVYETVRV [FSHB_Y76],10.2,3.22,0.894,11.2,18.5,9.8,8.98,1.57,2.11,12.4,18,6.92,9.94
0.474,0.688,0.722,GMEIVYVYVKK [DNAI2_Y5],0.731,0.967,0.964,0.545,0.545,0.665,0.632,1.1,1.24,0.899,0.813,1.23,0.416
1.64,2.77,3,QKKPRYEIRWK [PDGFRB_Y562],0.928,0.756,1.74,0.895,1.02,0.919,0.605,2.06,1.96,0.723,1.05,1.75,1.16

SH2 binding enrichment (c-Src SH2),SH2 binding enrichment (Grb2 SH2),SH2 binding enrichment (SHP2-C SH2),Sequence,phosphorylation enrichment (EPHB1),phosphorylation enrichment (FGFR1),phosphorylation enrichment (Jak2),phosphorylation enrichment (Fyn),phosphorylation enrichment (Fer (mouse)),phosphorylation enrichment (EPHB2),phosphorylation enrichment (c-Src),phosphorylation enrichment (FGFR3),phosphorylation enrichment (AncSZ),phosphorylation enrichment (Hck),phosphorylation enrichment (c-Abl (mouse)),phosphorylation enrichment (Fes),phosphorylation enrichment (MERTK)
0.545,0.869,1.65,LSGFGYRLSDQ [PDCD6_Y124],0.64,0.787,1.09,0.731,0.449,0.502,0.558,0.76,1.02,0.444,0.787,0.977,0.474
0.586,0.771,0.673,ALAHKHHGGGG [HBB_Y146_Y146H],0.372,0.355,0.558,0.414,0.419,0.391,0.505,0.539,0.588,0.419,0.569,0.593,0.416
1.02,1.1,1.39,CTTIHSNYMCN [TP53_Y234_Y234S],0.542,0.483,0.608,0.478,0.44,0.563,0.387,0.588,0.853,0.448,0.576,0.915,0.479
0.628,1,0.645,IALNSCHSRNC [IFNGR1_Y397_Y397C],0.337,0.486,0.375,0.359,0.379,0.351,0.401,0.371,0.48,0.358,0.36,0.506,0.406
3.17,1.55,2.48,QRKRAYVEIEF [MAK16_Y282_YF],0.838,0.617,0.723,0.655,0.48,0.594,0.63,0.785,0.926,0.398,0.631,1.42,0.643
0.562,0.737,0.664,GDFSRYDEGSG [RECQL5_Y484],0.523,0.471,0.905,0.502,0.439,0.481,0.534,0.662,0.889,0.494,0.799,1.16,0.513
0.62,0.852,0.647,VDEERYDIEAK [TNNI3_Y112],0.516,0.555,1.12,0.513,0.519,0.708,0.483,0.697,1.13,0.724,0.752,1.24,0.439
0.767,0.963,0.868,ASLEAYCKHKF [RXRA_Y403_YF],0.572,0.654,0.697,0.468,0.585,0.66,0.497,0.915,0.83,0.519,0.687,1.07,0.556
0.548,1.07,0.945,AGQEDCDRLRP [CDC42_Y64_Y64C],0.552,0.476,0.682,0.436,0.439,0.444,0.427,0.586,0.784,0.424,0.609,0.882,0.364
0.496,0.703,0.639,AGQEKYSAMRD [HRAS_Y64_E63K],0.318,0.324,0.618,0.427,0.37,0.424,0.416,0.498,0.574,0.423,0.604,0.837,0.312
0.876,1.05,1.14,VIGRMYDFHVL [RPF2_Y109_YF],0.556,0.472,0.804,0.469,8.04,0.659,0.598,0.607,0.943,0.6,0.573,0.902,3.11
1.98,1.45,1.36,PPAPRYHHLAV [LZTR1_Y119_S122L],0.606,0.377,1.19,0.444,0.491,0.514,0.552,0.745,0.868,0.71,0.664,0.964,0.556
0.703,0.8,0.791,RKEAQYMLENE [SLC16A6_Y224],0.605,0.503,1.22,0.642,0.445,0.523,0.899,0.827,1.52,0.803,0.997,1.32,0.619
1.04,1.64,1.64,VVFIKYLPEWT [PSEN1_Y240_L235V],0.595,0.424,1.22,0.335,0.538,0.532,0.414,0.773,1.01,0.44,0.81,1.23,0.343
1.9,0.873,0.528,KSVSQYLEMDK [CAGE1_Y438],0.422,0.46,0.907,0.414,0.424,0.406,0.406,0.537,0.748,0.391,1.05,0.803,0.38
0.961,1.21,1.16,NLNGKYFKPRA [ANGPTL3_Y417_N418Y_YF],0.538,0.363,0.543,0.335,0.297,0.365,0.43,0.383,0.646,0.367,0.469,0.56,0.389
